Reference: patent US6303317A, “Peptide probes and methods for making the same” (The Regents of the University of California, priority 1998, dated 2001)
Like-named read-outs stand apart in the source and are kept apart here. Where no end group is shown, it is not given here. [ ]: non-standard residue; d: D form. biotin (long spacer arm) = biotin with long spacer arm, attached via N-hydroxysuccinimidyl ester of biotin; Nle = CCCC[C@H](N)C(=O)O

How the values were obtained:
APC-55 = biological target: T1, APC-55 (Homo sapiens, UniProt P25054); test: Fluorescence energy transfer titration (dissociation constant of heterodimer); type: binding
T1 construct: APC-55, a peptide corresponding to amino acids 2-55 of human APC; made in house; host or cells: E. coli BL21 (DE3), pAED4 plasmid
T1 sequence (P25054 2-55): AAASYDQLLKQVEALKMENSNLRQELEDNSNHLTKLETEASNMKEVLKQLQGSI
Method: Based on the sensitivity of the fluorescence method used, the dissociation constant of the APC-55/Anti-APCp2 heterodimer was estimated to be less than 10 nM. […] Because the amino-terminal, coiled coil sequence targeted by anti-APCp1 occurs in tumor-associated truncation mutants, the distinct electrophoretic mobilities of the species detected by the antisense peptide distinguish wild-type from tumorigenic APC variants (FIG. 9).

[1] = biological target: T2, N-terminal APC coiled coil (APC-55) (Homo sapiens, UniProt P25054); test: Thermal denaturation followed by circular dichroism at 222 nm (apparent Tm); type: physicochemical; conditions: for Apparent Tm: 10 mM phosphate pH 7.0 and 100 mM potassium flouride, midpoint of CD thermal denaturation at 222 nm
T2 construct: APC-55, a peptide corresponding to amino acids 2-55 of human APC; made in house; host or cells: E. coli BL21 (DE3), pAED4 plasmid
T2 sequence (P25054 2-55): T1 sequence (P25054 2-55)
Method: Circular dischroism investigations are well known in the art. For example, such an investigation may be performed using a 1 cm or 1 mm cuvette (Helma or Uvonic) on an Aviv CD spectrophotometer (model 60DS or model 62DS) equipped with a thermoelectric controller. The buffer used for all CD experiments except pH titrations is 100 mM KF, 10 mM potassium phosphate (pH 7.0). All peptide concentrations may be determined by tyrosine absorbance at 275.5 nm in 6.0 M GuHCl PH 6.5 (Schwarz/Mann Biotech Ultra-Pure grade) using an Aviv UV/VIS spectrophotometer (model 1 BDS or 14 DS). The molar ellipticity at 222 nm, 5° C., is measured for the homo- and heterodimers. The CD values (i.e., deg cm^2 and dmol^-1) indicate % helicity of the peptides. Thermal melting curves are determined by monitoring the CD signal at 222 nm as a function of temperature. The pH dependence of stability may be measured in 100 mM KF, 10 mM potassium phosphate at various pH values. GuHCl (Schwarz/Mann Biotech Ultra-Pure grade) (e.g., 2M) may be included in the buffer used for monitoring the pH dependence of stability. pH stability is indicated if the same overall shape of the pH dependence curve is obtained in the absence as well as the presence of GuHCl. It is also desirable to determine the reversibility for all thermal melts. The absence of reversibility of a melting curve above a certain pH value indicates chemical modification and/or degradation of the polypeptide. Such modification and/or degradation may be confirmed using HPLC.
Thermal denaturation is used to determine Tm. The term "Tm " refers to the temperature at which the fraction of a polypeptide which is unfolded is equal to the fraction folded (ΔG=0). The Tm is determined by curve fitting a thermal denaturation curve (described supra) to an equation known in the art (see, O'Shea et al (1992) Cell 68:699-708) using a nonlinear least squares-fitting program (e.g., Kaledagraph, Synergy Software). Alternatively, the Tm for each polypeptide may also be determined by taking the first derivative of the CD signal (β) with respect to temperature^-1 (temperature in K) and finding the minimum of this function (Cantor and Schimmel, 1980). Similarly, denaturation induced by additives such as urea or GuHCl can be followed by circular dichroism. These measurements can yield the Cm, i.e., the denaturant concentration where ΔG=0. Linear extrapolation of the transition to zero denaturant can yield the equilibrium constant in aqueous buffer. This can be converted to a free energy of association using the formula ΔG=--RTlnK [Cantor and Schimmel (1980) supra).
CD spectra (180-300 nm) for the APC-55 and anti-APCp1 peptides alone and in combination were recorded in a 1 mm quartz cuvette at 5° C. using an Aviv 62DS circular dichroism spectrophotometer. The concentrations of peptide stocks were determined optically by the method of Gill and vonHippel, Anal. Biochem 182:319-326 (1989). Peptide stocks were diluted in 10 mM KPO4, 100 mM KF, pH 7.0. Thermal denaturations were carried out in steps of 1-3° C. with 2 minutes for equilibration and one minute for data averaging. Thermal transitions were >95% reversible. The results in FIGS. 3 and 4 obtained with the APC-55 alone are shown by open circles (.largecircle.), with the anti-APCp1 alone by squares (.quadrature.), and with an equimolar mixture of APC-55 and anti-APCp1 with closed circles (.circle-solid.).

[2] = thermal denaturation by CD, peptide alone, 75.0 µM
[3] = thermal denaturation by CD at 222 nm, peptide alone (homo-oligomer), 8.0 µM
[4] = thermal denaturation by CD at 222 nm, peptide alone (homo-oligomer), 20.0 µM
[5] = thermal denaturation by CD, peptide alone, 20.0 µM
[6] = thermal stability at 20 µM peptide in PBS (pH 7.0), peptide alone
[7] = thermal denaturation by CD, peptide alone, 8.0 µM
[8] = thermal denaturation by CD at 222 nm, peptide alone (homo-oligomer), 75.0 µM
[9] = biological target: T3, APC-55, a peptide corresponding to amino acids 2-55 of human APC (human); test: thermal denaturation by CD at 222 nm, equimolar mixture, 8.0 µM
T3 peptide: T1 sequence (P25054 2-55)
Method: (§1) CD spectra (180–300 nm) for the APC-55 and anti-APCp1 peptides alone and in combination were recorded in a 1 mm quartz cuvette at 5° C. using an Aviv 62DS circular dichroism spectrophotometer. The concentrations of peptide stocks were determined optically by the method of Gill and vonHippel, *Anal. Biochem* 182:319–326 (1989). Peptide stocks were diluted in 10 mM KPO_4, 100 mM KF, pH 7.0. Thermal denaturations were carried out in steps of 1–3° C. with 2 minutes for equilibration and one minute for data averaging. Thermal transitions were >95% reversible. The results in FIGS. 3 and 4 obtained with the APC-55 alone are shown by open circles (○), with the anti-APCp1 alone by squares (□), and with an equimolar mixture of APC-55 and anti-APCp1 with closed circles (●).

[10] = biological target: T3, APC-55, a peptide corresponding to …; test: thermal stability at 20 µM peptide in PBS (pH 7.0), mixture
[11] = biological target: T3, APC-55, a peptide corresponding to …; test: thermal denaturation followed by circular dichroism at 222 nm
Method: as §1

[12] = biological target: T3, APC-55, a peptide corresponding to …; test: thermal denaturation by CD at 222 nm, equimolar mixture, 75.0 µM
Method: as §1

[13] = biological target: T3, APC-55, a peptide corresponding to …; test: native acrylamide gel electrophoresis, judged by the sensitivity of detection
Method: Native acrylamide gel electrophoresis was used as a direct test of heterodimer specificity. Samples of the individual peptides and an equimolar mixture of the peptides were prepared at 0.6 mM and diluted two-fold in 0.2% (w/v) methyl green, 20% glycerol, 750 mM beta-alanine acetate pH 6.0. Gels contained a separating gel of 7.5% acrylamide in 375 mM beta-alanine acetate, pH 4.0. Samples were run for 2.5 hours at 100 volts, and the gels were fixed with 2% glutaraldehyde and stained for at least 1 hour in 0.2% Coomassie Brilliant Blue in 50% methanol, 10% acetic acid (v/v). Destaining was carried out overnight in the same solvent lacking the dye.
The data presented herein was surprising in view of the prior art reports of the sufficiency of e':g interactions for dimerization specificity of coiled coil proteins [O'Shea et al. (1992), supra; O'Shea et al. (1993) supra; Krylov et al (1994) EMBO J. 13:2849–2861].

[14] = biological target: T3, APC-55, a peptide corresponding to …; test: thermal denaturation by CD at 222 nm, equimolar mixture, 20.0 µM
Method: as §1

coumarin-labeled APC-55 = biological target: T4, coumarin-labeled APC-55 (human, coumarin label (site not stated)); test: fluorescence energy transfer measurements
T4 peptide: T1 sequence (P25054 2-55)

[15] = biological target: T3, APC-55, a peptide corresponding to …; test: thermal denaturation by CD, equimolar mixture, 75.0 µM
[16] = biological target: T3, APC-55, a peptide corresponding to …; test: thermal denaturation by CD, equimolar mixture, 8.0 µM
[17] = biological target: T3, APC-55, a peptide corresponding to …; test: fluorescence energy transfer titration
[18] = biological target: T3, APC-55, a peptide corresponding to …; test: thermal denaturation by CD, equimolar mixture, 20.0 µM
[19] = biological target: GST-APC-H1-4 (GST fused to the N-terminal 373 amino acids of the APC protein, heptad repeats 1-4) (human, UniProt P08515 = GST); test: Western blot of bacterial lysates, 5 nM biotinylated peptide, streptavidin-HRP
Method: (§2) Bacterial lysates containing GST, GST-APC-H1, GST-APC-H1-4 and GST-APC-probe were diluted 1:10 in cell lysates from induced BL21 cells containing no APC sequences and adjusted to a final protein concentration of 0.5 mg/ml in sample buffer. Five micrograms of each sample was electrophoresed on a precast 10% Tricine-SDS polyacrylamide gel (Novex) as described by Schager and von-Jagow (1987). Proteins were transferred to 0.45 micron nitrocellulose for 2 hours at 100 V, 4° C., in transfer buffer (25 mM Tris, 192 mM glycine, 20% methanol, 0.1% SDS).
(§3) The anti-APCp1 peptide was biotinylated by removing the F-moc protecting group from the N-terminus of the peptide on the synthesis resin and incubating the resin with the N-hydroxy-succinimidyl ester of biotin containing a long spacer arm (Pierce, Catalog #21336) in dimethylformamide. The biotinylated anti-APCp1 contains Met (instead of Nrl) as well as an additional Leu8Val mutation and Glu-Asp-Glu (wild-type APC sequence) at the peptide C-terminus. This probe was indistinguishable from anti-APCp1 in native gel experiments and CD experiments (data not shown). Blots were blocked for 1 hour in PNT buffer (10 mM phosphate, pH 8.0, 175 mM NaCl, 0.1% Tween-20) containing 0.5% bovine serum albumin. After blocking, blots were probed for I hour at 42° C. with 5 nM biotinylated antiAPC peptide in PNT buffer containing 1% BSA. […]

[20] = biological target: GST-APC-H1 (GST fused to the first 55 amino acids of the human APC protein, heptad repeat 1) (human, UniProt P08515 = GST); test: as above
Method: as §2, §3

[Nle]AAKGDQLKKEVEALEYENSNLRKKLEDHKKKLTKLKTEISNAKK[Nle]LKQLYASI [anti-APCp2]
Kd (APC-55; estimated from the sensitivity of the fluorescence method, read-out: dissociation constant of the APC-55/Anti-APCp2 heterodimer): < 10 nM

APC-55: peptide corresponding to amino acids 2-55 of human APC; target coiled coil; MAAASYDQLLKQVEALKMENSNLRQELEDNSNHLTKLETEASNMKEVLKQLQGSI
Apparent Tm (+/- 1.25° C.) ([1]; 8.0 μM peptide (Table 9)): 36.3 °C | Apparent Tm ([1]; 8.0 μM peptide): 36.3 °C | Apparent Tm (+/- 1.25° C.) ([1]; 20.0 μM peptide (Table 9)): 40.0 °C | Tm (thermal stability) ([1]; 20 μM peptide concentration in PBS (pH 7.0)): 40.0 °C | Apparent Tm ([1]; 20.0 μM peptide): 40.0 °C | Apparent Tm (+/- 1.25° C.) ([1]; 75.0 μM peptide (Table 9)): 46.5 °C | Apparent Tm ([1]; 75.0 μM peptide): 46.5 °C

MAAKGDQLKKEVEALEYENSNLRKKLEDHKKKLTKLKTEISNAKKMLKQLYASI [anti-APCp1]
Kd (APC-55; fluorescein- and coumarin-labeled anti-APCp1 and APC-55, data not shown, read-out: Kd of the heterodimer (upper limit)): ≤ 10 nM

B1: APC-55, a peptide corresponding to amino acids 2-55 of human APC (protein)
chain: T1 sequence (P25054 2-55)
Apparent Tm [2]: 46.5 ° C. | Apparent Tm [3]: 36.3 ° C. | Apparent Tm [4]: 40 ° C. | Apparent Tm [5]: 40 ° C. | Tm [6]: 40 ° C. | Apparent Tm [7]: 36.3 ° C. | Apparent Tm [8]: 46.5 ° C.

B2: anti-APCp1 polypeptide probe (designed binder)
peptide: MAAKGDQLKKEVEALEYENSNLRKKLEDHKKKLTKLKTEISNAKKMLKQLYASI
Apparent Tm [9]: 50.6 ° C. | Apparent Tm [3]: 45 ° C. | Apparent Tm [4]: 52.3 ° C. | Tm [10]: 54.3 ° C. | increase in the thermal melting transition [11]: > 10 ° C. | Apparent Tm [12]: 64.7 ° C. | Tm [6]: 52.3 ° C. | preference for heterodimer over homodimers (fold) [13]: ≥ 100 fold | Apparent Tm [14]: 54.3 ° C. | Apparent Tm [8]: 59.6 ° C.

B3: fluorescein-labeled anti-APCp1 (designed binder)
peptide: B2 peptide
modifications: also: fluorescein label (site not given here)
Kd (coumarin-labeled APC-55): ≤ 10 nM

B4: anti-APCp2 polypeptide probe (designed binder)
peptide: [Nle]AAKGDQLKKEVEALEYENSNLRKKLEDHKKKLTKLKTEISNAKK[Nle]LKQLYASI
Apparent Tm [15]: 63.6 ° C. | Tm [10]: 57.5 ° C. | Apparent Tm [16]: 52.9 ° C. | Kd [17]: < 10 nM | Apparent Tm [18]: 57.5 ° C.

B5: biotinylated anti-APCp1 (contains Met instead of Nrl, an additional Leu8Val mutation and Glu-Asp-Glu at the peptide C-terminus) (designed binder)
peptide: {biotin (long spacer arm)}-MAAKGDQVKKEVEALEYENSNLRKKLEDHKKKLTKLKTEISNAKKMLKQLYASIEDE
binding result [19]: binds | binding result [20]: binds
